Test results reported in publication PMC7990132.

Molecular target: FcγRI (UniProt P12314)
Test: BLI

UniProt P12314, sequence (P12314 16-374): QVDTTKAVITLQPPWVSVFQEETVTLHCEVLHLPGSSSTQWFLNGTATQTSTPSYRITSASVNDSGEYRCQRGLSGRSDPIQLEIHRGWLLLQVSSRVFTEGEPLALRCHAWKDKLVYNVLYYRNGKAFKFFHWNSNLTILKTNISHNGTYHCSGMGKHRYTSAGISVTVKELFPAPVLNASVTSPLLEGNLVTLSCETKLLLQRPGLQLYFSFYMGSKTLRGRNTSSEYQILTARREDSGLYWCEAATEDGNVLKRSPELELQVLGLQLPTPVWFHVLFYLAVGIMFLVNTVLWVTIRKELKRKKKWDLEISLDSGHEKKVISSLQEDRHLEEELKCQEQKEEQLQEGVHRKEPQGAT

Substance: Sintilimab (antibody)
- Kd: 10 nM
